This note sets out measurements from patent publication US20240240209A1, “SYNTHESIS OF ENANTIOPURE CIS-A-IRONE FROM A RENEWABLE CARBON SOURCE” (Agency for Science, Technology and Research, priority 2021, published 2024).

B1: T13M (protein)
chain: MPQEARTPQQQVMADEVGDWYDKFGEVYHLTLGESVHCGLWFPPDAPVPQDMELVTMSSQAQDRFTDYLIETLDPKAGQHLLDIGCGTGRPALKAARQRGIAVTGVAVSKEQIAAANRLAAGHGLTERLTFEVADAMRLPYEDESFDCAWAIESLDHMDRAKALGEAWRVLKPGGDLLVAEEVVTEELTEPETALFETLFALNVPPRLGEFFDIVSGAGFHTLSLKDLSADLAMTMNVFALGVYSRRAEFTERFGAEFVDGLLAGLGSAQETVIRKTRFFMATLRKPAV
modifications: Modified from pMT1
B2: A14M (protein)
chain: MPQEARTPQQQVTMDEVGDWYDKFGEVYHLTLGESVHCGLWFPPDAPVPQDMELVTMSSQAQDRFTDYLIETLDPKAGQHLLDIGCGTGRPALKAARQRGIAVTGVAVSKEQIAAANRLAAGHGLTERLTFEVADAMRLPYEDESFDCAWAIESLDHMDRAKALGEAWRVLKPGGDLLVAEEVVTEELTEPETALFETLFALNVPPRLGEFFDIVSGAGFHTLSLKDLSADLAMTMNVFALGVYSRRAEFTERFGAEFVDGLLAGLGSAQETVIRKTRFFMATLRKPAV
modifications: Modified from pMT1
B3: M137A (protein)
chain: MPQEARTPQQQVTADEVGDWYDKFGEVYHLTLGESVHCGLWFPPDAPVPQDMELVTMSSQAQDRFTDYLIETLDPKAGQHLLDIGCGTGRPALKAARQRGIAVTGVAVSKEQIAAANRLAAGHGLTERLTFEVADAARLPYEDESFDCAWAIESLDHMDRAKALGEAWRVLKPGGDLLVAEEVVTEELTEPETALFETLFALNVPPRLGEFFDIVSGAGFHTLSLKDLSADLAMTMNVFALGVYSRRAEFTERFGAEFVDGLLAGLGSAQETVIRKTRFFMATLRKPAV
modifications: Modified from pMT1
B4: L129V (protein)
chain: MPQEARTPQQQVTADEVGDWYDKFGEVYHLTLGESVHCGLWFPPDAPVPQDMELVTMSSQAQDRFTDYLIETLDPKAGQHLLDIGCGTGRPALKAARQRGIAVTGVAVSKEQIAAANRLAAGHGLTERVTFEVADAMRLPYEDESFDCAWAIESLDHMDRAKALGEAWRVLKPGGDLLVAEEVVTEELTEPETALFETLFALNVPPRLGEFFDIVSGAGFHTLSLKDLSADLAMTMNVFALGVYSRRAEFTERFGAEFVDGLLAGLGSAQETVIRKTRFFMATLRKPAV
modifications: Modified from pMT1
B5: M137G (protein)
chain: MPQEARTPQQQVTADEVGDWYDKFGEVYHLTLGESVHCGLWFPPDAPVPQDMELVTMSSQAQDRFTDYLIETLDPKAGQHLLDIGCGTGRPALKAARQRGIAVTGVAVSKEQIAAANRLAAGHGLTERLTFEVADAGRLPYEDESFDCAWAIESLDHMDRAKALGEAWRVLKPGGDLLVAEEVVTEELTEPETALFETLFALNVPPRLGEFFDIVSGAGFHTLSLKDLSADLAMTMNVFALGVYSRRAEFTERFGAEFVDGLLAGLGSAQETVIRKTRFFMATLRKPAV
modifications: Modified from pMT1
B6: T13A (protein)
chain: MPQEARTPQQQVAADEVGDWYDKFGEVYHLTLGESVHCGLWFPPDAPVPQDMELVTMSSQAQDRFTDYLIETLDPKAGQHLLDIGCGTGRPALKAARQRGIAVTGVAVSKEQIAAANRLAAGHGLTERLTFEVADAMRLPYEDESFDCAWAIESLDHMDRAKALGEAWRVLKPGGDLLVAEEVVTEELTEPETALFETLFALNVPPRLGEFFDIVSGAGFHTLSLKDLSADLAMTMNVFALGVYSRRAEFTERFGAEFVDGLLAGLGSAQETVIRKTRFFMATLRKPAV
modifications: Modified from pMT1
B7: T13G (protein)
chain: MPQEARTPQQQVGADEVGDWYDKFGEVYHLTLGESVHCGLWFPPDAPVPQDMELVTMSSQAQDRFTDYLIETLDPKAGQHLLDIGCGTGRPALKAARQRGIAVTGVAVSKEQIAAANRLAAGHGLTERLTFEVADAMRLPYEDESFDCAWAIESLDHMDRAKALGEAWRVLKPGGDLLVAEEVVTEELTEPETALFETLFALNVPPRLGEFFDIVSGAGFHTLSLKDLSADLAMTMNVFALGVYSRRAEFTERFGAEFVDGLLAGLGSAQETVIRKTRFFMATLRKPAV
modifications: Modified from pMT1
B8: E192S (protein)
chain: MPQEARTPQQQVTADEVGDWYDKFGEVYHLTLGESVHCGLWFPPDAPVPQDMELVTMSSQAQDRFTDYLIETLDPKAGQHLLDIGCGTGRPALKAARQRGIAVTGVAVSKEQIAAANRLAAGHGLTERLTFEVADAMRLPYEDESFDCAWAIESLDHMDRAKALGEAWRVLKPGGDLLVAEEVVTEELTEPSTALFETLFALNVPPRLGEFFDIVSGAGFHTLSLKDLSADLAMTMNVFALGVYSRRAEFTERFGAEFVDGLLAGLGSAQETVIRKTRFFMATLRKPAV
modifications: Modified from pMT1
B9: T13Q (protein)
chain: MPQEARTPQQQVQADEVGDWYDKFGEVYHLTLGESVHCGLWFPPDAPVPQDMELVTMSSQAQDRFTDYLIETLDPKAGQHLLDIGCGTGRPALKAARQRGIAVTGVAVSKEQIAAANRLAAGHGLTERLTFEVADAMRLPYEDESFDCAWAIESLDHMDRAKALGEAWRVLKPGGDLLVAEEVVTEELTEPETALFETLFALNVPPRLGEFFDIVSGAGFHTLSLKDLSADLAMTMNVFALGVYSRRAEFTERFGAEFVDGLLAGLGSAQETVIRKTRFFMATLRKPAV
modifications: Modified from pMT1
B10: L129C (protein)
chain: MPQEARTPQQQVTADEVGDWYDKFGEVYHLTLGESVHCGLWFPPDAPVPQDMELVTMSSQAQDRFTDYLIETLDPKAGQHLLDIGCGTGRPALKAARQRGIAVTGVAVSKEQIAAANRLAAGHGLTERCTFEVADAMRLPYEDESFDCAWAIESLDHMDRAKALGEAWRVLKPGGDLLVAEEVVTEELTEPETALFETLFALNVPPRLGEFFDIVSGAGFHTLSLKDLSADLAMTMNVFALGVYSRRAEFTERFGAEFVDGLLAGLGSAQETVIRKTRFFMATLRKPAV
modifications: Modified from pMT1
B11: L129K (protein)
chain: MPQEARTPQQQVTADEVGDWYDKFGEVYHLTLGESVHCGLWFPPDAPVPQDMELVTMSSQAQDRFTDYLIETLDPKAGQHLLDIGCGTGRPALKAARQRGIAVTGVAVSKEQIAAANRLAAGHGLTERKTFEVADAMRLPYEDESFDCAWAIESLDHMDRAKALGEAWRVLKPGGDLLVAEEVVTEELTEPETALFETLFALNVPPRLGEFFDIVSGAGFHTLSLKDLSADLAMTMNVFALGVYSRRAEFTERFGAEFVDGLLAGLGSAQETVIRKTRFFMATLRKPAV
modifications: Modified from pMT1
B12: L195I (protein)
chain: MPQEARTPQQQVTADEVGDWYDKFGEVYHLTLGESVHCGLWFPPDAPVPQDMELVTMSSQAQDRFTDYLIETLDPKAGQHLLDIGCGTGRPALKAARQRGIAVTGVAVSKEQIAAANRLAAGHGLTERLTFEVADAMRLPYEDESFDCAWAIESLDHMDRAKALGEAWRVLKPGGDLLVAEEVVTEELTEPETAIFETLFALNVPPRLGEFFDIVSGAGFHTLSLKDLSADLAMTMNVFALGVYSRRAEFTERFGAEFVDGLLAGLGSAQETVIRKTRFFMATLRKPAV
modifications: Modified from pMT1

The assay in a line: In-vivo cis-α-irone production screening of pMT7 and pMT12 mutants. The settings on record: mutations made to pMT12; normalized to pMT12 (=1). Format: cell-based, Escherichia coli. The procedure, abridged:
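E. coli BL21(DE3) ΔaroA ΔaroB ΔaroC ΔserC strains, with or without ΔmetJ, carried the plasmids and were grown in 1 ml auto-inducing defined medium (glucose/glycerol, 30 mM lactose) at 28 °C for 3 days. Products were extracted into hexane and measured by GC-MS. Production is a semi-quantitative fold change relative to pMT12.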
As for B1, the “Fold change in in-vivo cis-α-irone production” value (shortened to “Fold change”) is given as 0.97.

In the case of B2, the “Fold change” value amounted to 0.94. As to B3, the “Fold change” value is reported as 1.15. The result for B4 reads 1.03; that for B5, 1.15. Then B6, with 0.91; and B7, with 0.91; and B8, with 0.97.

B9: the “Fold change” value was 0.93.

Take B10: the “Fold change” value stood at 1.08. Then B11, with 1.00; and B12, with 1.08.
